In patent publication US20240059759A1 (BIGHAT BIOSCIENCES, published 2024):

Key:
[1] = target: T1, SARS-CoV-2 RBD (SinoBiological, Cat. No. 40592-V02H) (SARS-CoV-2, UniProt P0DTC2 319-541); experiment: ELISA on SARS-CoV-2 RBD
T1 construct: domain: RBD

[2] = target: T1, SARS-CoV-2 RBD (SinoBiological, Cat. …)
[3] = target: T1, SARS-CoV-2 RBD (SinoBiological, Cat. …); experiment: ELISA on RBD
[4] = target: T1, SARS-CoV-2 RBD (SinoBiological, Cat. …); experiment: ELISA on RBD, compared with wildtype VHH-72
[5] = target: T1, SARS-CoV-2 RBD (SinoBiological, Cat. …); experiment: ELISA, relative EC50

Row | Binder | Rel. EC50 - ELISA [1] | EC50 [3] | further results
1 | VHH-72(S57G) (VHH) VHH: QVQLQESGGGLVQAGGSLRLSCAASGRTFSEYAMGWFRQAPGKEREFVATISWSGGGTYYTDSVKGRFTISRDNAKNTVYLQMNSLKPDDTAVYYCAAAGLGTVVSEWDYDYDYWGQGTQVTVSS | 0.09 relative to WT |  | 
2 | VHH-72 (S57A, Y60T) (VHH) VHH: QVQLQESGGGLVQAGGSLRLSCAASGRTFSEYAMGWFRQAPGKEREFVATISWSGGATYTTDSVKGRFTISRDNAKNTVYLQMNSLKPDDTAVYYCAAAGLGTVVSEWDYDYDYWGQGTQVTVSS |  | 0.024 µg/mL | fold further-increased apparent RBD affinity [2]: ~3.5 fold
3 | VHH-72 (S57Y) (VHH) VHH: QVQLQESGGGLVQAGGSLRLSCAASGRTFSEYAMGWFRQAPGKEREFVATISWSGGYTYYTDSVKGRFTISRDNAKNTVYLQMNSLKPDDTAVYYCAAAGLGTVVSEWDYDYDYWGQGTQVTVSS | 0.28 relative to WT |  | fold increased apparent affinity [4]: ~4 fold
4 | VHH-72 variant expressing both S57A and D61A (VHH) VHH: QVQLQESGGGLVQAGGSLRLSCAASGRTFSEYAMGWFRQAPGKEREFVATISWSGGATYYTASVKGRFTISRDNAKNTVYLQMNSLKPDDTAVYYCAAAGLGTVVSEWDYDYDYWGQGTQVTVSS |  | 0.012 µg/mL | fold improved binding compared to the wildtype VHH-72 [4]: > 160 fold
5 | VHH-72 (S57A, Y60H) (VHH) VHH: QVQLQESGGGLVQAGGSLRLSCAASGRTFSEYAMGWFRQAPGKEREFVATISWSGGATYHTDSVKGRFTISRDNAKNTVYLQMNSLKPDDTAVYYCAAAGLGTVVSEWDYDYDYWGQGTQVTVSS |  | 0.029 µg/mL | fold further-increased apparent RBD affinity [2]: ~3.5 fold
6 | VHH-72(D61A) (VHH) VHH: QVQLQESGGGLVQAGGSLRLSCAASGRTFSEYAMGWFRQAPGKEREFVATISWSGGSTYYTASVKGRFTISRDNAKNTVYLQMNSLKPDDTAVYYCAAAGLGTVVSEWDYDYDYWGQGTQVTVSS |  | 0.51 µg/mL | fold increased RBD binding [4]: 4 fold
7 | VHH-72 (S57A) (VHH) VHH: QVQLQESGGGLVQAGGSLRLSCAASGRTFSEYAMGWFRQAPGKEREFVATISWSGGATYYTDSVKGRFTISRDNAKNTVYLQMNSLKPDDTAVYYCAAAGLGTVVSEWDYDYDYWGQGTQVTVSS | 0.05 relative to WT | 0.09 µg/mL | fold increase in RBD affinity [4]: 22 fold
8 | VHH-72(S57S) (VHH) VHH: QVQLQESGGGLVQAGGSLRLSCAASGRTFSEYAMGWFRQAPGKEREFVATISWSGGSTYYTDSVKGRFTISRDNAKNTVYLQMNSLKPDDTAVYYCAAAGLGTVVSEWDYDYDYWGQGTQVTVSS | 1 relative to WT |  | 
9 | VHH-72(S57T) (VHH) VHH: QVQLQESGGGLVQAGGSLRLSCAASGRTFSEYAMGWFRQAPGKEREFVATISWSGGTTYYTDSVKGRFTISRDNAKNTVYLQMNSLKPDDTAVYYCAAAGLGTVVSEWDYDYDYWGQGTQVTVSS |  |  | binding result [5]: no binding
